Measurements from PMC5818423, “Molecular Evidence of Adenosine Deaminase Linking Adenosine A2A Receptor and CD26 Proteins” (Frontiers in Pharmacology, 2018).

What was measured:
[1] = molecular target: A2AR-Nluc-spacer (human adenosine A2A receptor fused to NanoLuc on the N-terminal end, with spacer) (human, UniProt P29274 1-412); test: cell-based or functional assay
[2] = molecular target: A2AR (human adenosine A2A receptor, non-fused) (human, UniProt P29274 1-412); test: cell-based or functional assay
Chain of A2AR (human adenosine A2A receptor, non-fused) (P29274 whole entry, the tested form may be a part): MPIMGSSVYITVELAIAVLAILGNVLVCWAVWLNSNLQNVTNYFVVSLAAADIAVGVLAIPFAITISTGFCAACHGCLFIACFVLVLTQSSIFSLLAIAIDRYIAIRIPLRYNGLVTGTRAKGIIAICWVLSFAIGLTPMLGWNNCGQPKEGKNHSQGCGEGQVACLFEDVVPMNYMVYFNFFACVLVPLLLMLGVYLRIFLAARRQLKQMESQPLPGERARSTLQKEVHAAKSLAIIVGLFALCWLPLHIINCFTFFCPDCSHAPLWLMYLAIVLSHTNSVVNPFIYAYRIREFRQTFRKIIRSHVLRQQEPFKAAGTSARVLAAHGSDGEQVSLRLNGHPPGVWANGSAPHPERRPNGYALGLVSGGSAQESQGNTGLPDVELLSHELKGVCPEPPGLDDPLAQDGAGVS

Chain of A2AR-Nluc-spacer (human adenosine A2A receptor fused to NanoLuc on the N-terminal end, with spacer) (P29274 whole entry, the tested form may be a part): as above

- EC50: concentration of ADA (0.1 ng/ml to 10 ug/ml) providing half-maximal increase in binding of 2.2 nM [3H]ZM 241385 to membranes of transfected HEK-293T cells [1]: 14 ng/mL
- EC50: concentration of ADA (0.1 ng/ml to 10 ug/ml) providing half-maximal increase in binding of 2.2 nM [3H]ZM 241385 to membranes of transfected HEK-293T cells [2]: 4 ng/mL
B1: Bovine adenosine deaminase (ADA) (enzyme, UniProt P56658 1-363, looked up)
chain: MAQTPAFNKPKVELHVHLDGAIKPETILYYGRKRGIALPADTPEELQNIIGMDKPLSLPEFLAKFDYYMPAIAGCREAVKRIAYEFVEMKAKDGVVYVEVRYSPHLLANSKVEPIPWNQAEGDLTPDEVVSLVNQGLQEGERDFGVKVRSILCCMRHQPSWSSEVVELCKKYREQTVVAIDLAGDETIEGSSLFPGHVKAYAEAVKSGVHRTVHAGEVGSANVVKEAVDTLKTERLGHGYHTLEDATLYNRLRQENMHFEVCPWSSYLTGAWKPDTEHPVVRFKNDQVNYSLNTDDPLIFKSTLDTDYQMTKNEMGFTEEEFKRLNINAAKSSFLPEDEKKELLDLLYKAYGMPSPASAEQCL
